The labels stand for the following.
B1: M320_5 Nb-Fc (Fc fusion)
chain: EVQLQQSGPELVKPGASVKMSCKASGYTFTDYYIKWEKQSHGKSLEWIGDINPKNGETFYNQQFKGKATLTVDKSSSTAYMQLNSLTSEDSAVYYCARKEYGDYGYAVDYWGQGTSVTVSS
notes: also called LVGN-S3205
B2: M2S320_75 Nb-Fc (Fc fusion)
chain: B1 chain with I34M, E37L, S40N, K54N, E57D, Q63K, K74T, V108T
notes: also called LVGN-S32075
B3: M2S320_377 Nb-Fc (Fc fusion)
chain: B1 chain with I34V, E37K, K54N, E57D, Q63K, G66D, D103N, Y104F
notes: also called LVGN-S320377
B4: M2S521_623 Nb-Fc (Fc fusion)
chain: EVQLQQSGPELVKPGASVKISCKASGYTFTDYYMKWEKQSHGKSLEWIGDINPNNGGTRYNQKFRGKATLTVDKSSSTAYMELRSLTSEDSAVYYCARLEDDYYGYAVDYWGQGTSVTVSS
notes: also called LVGN-S521623
B5: M2S521_378 Nb-Fc (Fc fusion)
chain: B4 chain with E37V, N54K, R59N, R65K, G66D, D102G, V108I, G112S
notes: also called LVGN-S521378
B6: MS521_35 Nb-Fc (Fc fusion)
chain: EVQLQQSGPELVKPGASVKISCKASGYTFTDYYMKWVKQRHGQSLEWIGNINPTNGDTNYSQNFKGKATLTVDKSSTTAYMELRSLTSEDSAVYYCARLEDGYYGYAVDYWGQGTSVTVSS
notes: also called LVGN-S52135
B7: M2S521_193 Nb-Fc (Fc fusion)
chain: B4 chain with E37V, T58A, R65K, K67R, A97S, D102G
notes: also called LVGN-S521193
B8: M2S521_72 Nb-Fc (Fc fusion)
chain: B4 chain with E37A, D50H, N54V, G57D, R59S, R65K, A79V, D102G, A107T, V108M
notes: also called LVGN-S52172

Numbering of substitutions follows the chain as printed.

One assay addresses T1, Spike protein of the COVID-19 Spike-ACE2 Binding Assay Kit (Raybiotech) (SARS-CoV-2, UniProt P0DTC2 319-541).
B1: the IC50 was found to be 0.4 nM. On the same count and under the same terms, then B2, with 0.12 nM; and B3, with 1.6 nM. The same measure, in the same setting: the result for B4 reads 0.13 nM; that for B5, 2.2 nM; that for B6, 0.49 nM. Still for that read-out and setting: the result for B7 reads 0.16 nM; that for B8, 0.041 nM.

The next assay has as its target T1, Spike protein of the COVID-19 …. This is another data set of the same source.
B1 showed an IC50 of 0.397 nM. Still for that read-out and setting: then B6, with 0.489 nM.

Broadly, the IC50 is the concentration needed to halve the response being measured.

Source of the values: patent publication US20260150817A1 (LEVERAGEN, published 2026).
